Data: paper PMC8590011, “WRN helicase safeguards deprotected replication forks in BRCA2-mutated cancer cells”

Molecular target: FLAG-WRN K577M/E84A (UniProt Q14191 1-1432, E84A;K577M)
Assay: EMSA; 2 mM ATPgS, 5 mM MgCl2; affinity similar to WT; Kd is only in Supp Fig 1e, value not in material; 35 mM Tris-HCl pH 7.5, 20 mM KCl, 5 mM MgCl2, 0.1 mg/ml BSA, 2 mM DTT, 5% glycerol, 2 mM ATPgS, 2 nM DNA, 15 min at RT; 5% 1x TBE native PAGE at 4 C
Conditions: protein: recombinant; tags: N-terminal FLAG (6xHis removed with TEV); label: 5' 32P on oligo B (as described for the CF preparation); four-strand regressed fork: AB partial duplex annealed to CD partial duplex

FLAG-WRN K577M/E84A, sequence (Q14191 whole entry E84A/K577M): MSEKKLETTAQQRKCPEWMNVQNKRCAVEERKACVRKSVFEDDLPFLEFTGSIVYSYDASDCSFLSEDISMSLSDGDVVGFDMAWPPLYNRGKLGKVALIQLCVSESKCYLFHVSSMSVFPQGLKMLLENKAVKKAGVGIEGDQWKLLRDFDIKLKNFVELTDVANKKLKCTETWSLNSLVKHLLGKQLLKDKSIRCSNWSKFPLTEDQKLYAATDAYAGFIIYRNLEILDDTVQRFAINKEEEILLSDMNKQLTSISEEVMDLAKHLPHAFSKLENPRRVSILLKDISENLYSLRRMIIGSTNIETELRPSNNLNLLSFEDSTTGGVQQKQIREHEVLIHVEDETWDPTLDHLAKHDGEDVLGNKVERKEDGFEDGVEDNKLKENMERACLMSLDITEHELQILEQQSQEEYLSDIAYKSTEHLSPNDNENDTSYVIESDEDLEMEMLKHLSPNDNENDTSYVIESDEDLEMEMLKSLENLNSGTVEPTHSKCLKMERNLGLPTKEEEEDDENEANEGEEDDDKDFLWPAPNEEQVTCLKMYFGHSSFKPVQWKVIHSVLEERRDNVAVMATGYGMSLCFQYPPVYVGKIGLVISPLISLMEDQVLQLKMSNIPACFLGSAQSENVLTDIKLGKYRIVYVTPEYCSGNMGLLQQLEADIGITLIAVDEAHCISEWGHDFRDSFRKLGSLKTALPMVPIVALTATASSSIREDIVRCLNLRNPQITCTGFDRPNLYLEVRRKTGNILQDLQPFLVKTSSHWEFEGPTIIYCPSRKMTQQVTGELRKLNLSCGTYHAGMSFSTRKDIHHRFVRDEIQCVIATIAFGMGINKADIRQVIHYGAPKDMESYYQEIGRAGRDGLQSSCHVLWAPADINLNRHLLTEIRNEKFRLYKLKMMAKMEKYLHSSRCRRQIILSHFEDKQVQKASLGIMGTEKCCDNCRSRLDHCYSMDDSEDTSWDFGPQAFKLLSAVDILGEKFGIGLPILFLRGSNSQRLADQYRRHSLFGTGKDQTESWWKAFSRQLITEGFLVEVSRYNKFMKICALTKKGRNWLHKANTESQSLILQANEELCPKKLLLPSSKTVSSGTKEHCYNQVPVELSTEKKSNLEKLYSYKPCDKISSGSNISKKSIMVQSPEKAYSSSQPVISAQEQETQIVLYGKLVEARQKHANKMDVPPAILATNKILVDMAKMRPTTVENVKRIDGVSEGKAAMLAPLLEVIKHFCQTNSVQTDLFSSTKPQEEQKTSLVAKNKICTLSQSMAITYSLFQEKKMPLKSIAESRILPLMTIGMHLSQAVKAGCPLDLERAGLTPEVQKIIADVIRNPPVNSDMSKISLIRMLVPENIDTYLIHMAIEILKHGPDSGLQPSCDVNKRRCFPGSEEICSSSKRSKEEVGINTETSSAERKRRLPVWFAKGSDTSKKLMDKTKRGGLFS

B1: chicken-foot (CF) reversed fork substrate, oligos A+B+C+D (structured_DNA)
DNA 1: CTTTAGCTGCATATTTACAACATGTTGACCTTCAGTACAATCTGCTCTGATGCCGCATAGTGTCATGCCAGAGCTTTGTAC
DNA 2: CGGGTGTCGGGGCGCATGACACTATGCGGCATCAGAGCAGATTGTACTGAAGGTCAACATGTTGTAAATATGCAGCTAAAG
DNA 3: GTACAAAGCTCTGGCATGATACTATGCGGCATCAGAGCAGATT
DNA 4: TCAGTACAATCTGCTCTGATGCCGCATAGTATCATGCGCCCCGACACCCG
modifications: iMe-isodC at position 38 of oligo A (written as C)
Question: Does B1 bind?
Answer: binds
